Test results taken from patent US7078507 (US Dept. of Health and Human Services, dated 2006).

Key:
[1] = target: T1, erythrocytes (red blood cells) carrying the EBA-175 receptor glycophorin A (human, UniProt P02724 20-150, sialic acid residues (removed by neuraminidase treatment in FIG. 12)); assay: erythrocyte binding assay
T1 construct: whole, on cells; The assays used whole erythrocytes; also called RBC; human RBCs
T1 sequence: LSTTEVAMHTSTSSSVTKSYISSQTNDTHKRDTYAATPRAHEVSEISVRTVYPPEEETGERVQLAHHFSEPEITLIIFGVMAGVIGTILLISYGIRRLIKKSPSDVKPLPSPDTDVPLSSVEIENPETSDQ

[2] = target: T1, erythrocytes (red blood cells) carrying …; assay: erythrocyte binding assay with human RBCs with or without neuraminidase treatment, immunoblot read-out

B1: Pichia pastoris-expressed recombinant EBA-175 region II (RII) protein, N-glycosylated (ligand)
chain: GRNTSSNNEVLSNCREKRKGMKWDCKKKNDRSNYVCIPDRRIQLCIVNLSIIKTYTKETMKDHFIEASKKESQLLLKKNDNKYNSKFCNDLKNSFLDYGHLAMGNDMDFGGYSTKAENKIQEVFKGAHGEISEHKIKNFRKKWWNEFREKLWEAMLSEHKNNINNCKNIPQEELQITQWIKEWHGEFLLERDNRSKLPKSKCKNNTLYEACEKECIDPCMKYRDWIIRSKFEWHTLSKEYETQKVPKENAENYLIKISENKNDAKVSLLLNNCDAEYSKYCDCKHTTTLVKSVLNGNDNTIKEKREHIDLDDFSKFGCDKNSVDTNTKVWECKKPYKLSTKDVCVPPRRQELCLGNIDRIYDKNLLMIKEHILAIAIYESRILKRKYKNKDDKEVCKIINKTFADIRDIIGGTDYWNDLSNRKLVGKINTNSNYVHRNKQNDKLFRDEWWKVIKKDVWNVISWVFKDKTVCKEDDIENIPQFFRWFSEWGDDYCQDKTKMIETLKVECKEKPCEDDNCKRKCNSYKEWISKKKEEYNKQAKQYQEYQKGNNYKMYSEFKSIKPEVYLKKYSEKCSNLNFEDEFKEELHSDYKNKCTMCPEVKDVPISIIRNNEQTS
modifications: about 1 of 5 putative N-glycosylation sites occupied (Man14-16GlcNAc2) when expressed in P. pastoris
notes: also called EBA-175 RII; P. pastoris derived EBA-175 RII protein
binding result [1]: binds

B2: Non-N-glycosylated EBA-175 RII protein (RII-N-Gly-) expressed in Pichia pastoris (ligand)
chain: GRQTSSNNEVLSNCREKRKGMKWDCKKKNDRSNYVCIPDRRIQLCIVNLAIIKTYTKETMKDHFIEASKKESQLLLKKNDNKYNSKFCNDLKNSFLDYGHLAMGNDMDFGGYSTKAENKIQEVFKGAHGEISEHKIKNFRKKWWNEFREKLWEAMLSEHKNNINNCKNIPQEELQITQWIKEWHGEFLLERDNRAKLPKSKCKNNALYEACEKECIDPCMKYRDWIIRSKFEWHTLSKEYETQKVPKENAENYLIKISENKNDAKVSLLLNNCDAEYSKYCDCKHTTTLVKSVLNGNDNTIKEKREHIDLDDFSKFGCDKNSVDTNTKVWECKKPYKLSTKDVCVPPRRQELCLGNIDRIYDKNLLMIKEHILAIAIYESRILKRKYKNKDDKEVCKIIQKTFADIRDIIGGTDYWNDLSNRKLVGKINTNSNYVHRNKQNDKLFRDEWWKVIKKDVWNVISWVFKDKTVCKEDDIENIPQFFRWFSEWGDDYCQDKTKMIETLKVECKEKPCEDDNCKRKCNSYKEWISKKKEEYNKQAKQYQEYQKGNNYKMYSEFKSIKPEVYLKKYSEKCSNLNFEDEFKEELHSDYKNKCTMCPEVKDVPISIIRNNEQTS
notes: also called mutated RII protein; non-N-glycosylated RII
binding result [2]: binds
